Read-outs that look alike come from different tables or passages of the source.
Assays:
[1] = molecular target: T1, human 4-1BB on cells (activated human T cells; HeLa-hu4-1BB-NFκB-luc clone 26; Jurkat-hu4-1BB-NFκB-luc2) (human, UniProt Q07011 24-255); assay: cell-based or functional assay
[2] = molecular target: T1, human 4-1BB on cells (activated human T …); assay: cell-based or functional assay; remark: listed apart in the source
[3] = molecular target: T2, human FAP on cells (WM-266-4; NIH/3T3-huFAP clone 19) (human, UniProt Q12884 1-760); assay: flow cytometry on WM-266-4 cells
T2 construct: transfected in NIH/3T3-huFAP clone 19

[4] = molecular target: T2, human FAP on cells (WM-266-4; …); assay: flow cytometry on NIH/3T3-huFAP clone 19 cells
[5] = molecular target: T1, human 4-1BB on cells (activated human T …); assay: flow cytometry on activated human CD4+ T cells, PE anti-human Fc secondary
[6] = molecular target: T1, human 4-1BB on cells (activated human T …); assay: flow cytometry on activated human CD8+ T cells, PE anti-human Fc secondary
[7] = molecular target: T3, hu4-1BB-SNAP fusion on Hek293 EBNA cells (human, UniProt Q07011 24-255, labeled with the FRET donor Terbium); assay: TagLite FRET competition on hu4-1BB-SNAP cells; competitor 0.6 nM d2-labelled 20H4.9 IgG; 4 h
T3 construct: also called hu 4-1BB (TagLite); not shown: SNAP tag

[8] = molecular target: T1, human 4-1BB on cells (activated human T …); assay: cell-based or functional assay; remark: listed apart in the source
[9] = molecular target: T1, human 4-1BB on cells (activated human T …); assay: flow cytometry on Jurkat-hu4-1BB-NFκB-luc2 cells
[10] = molecular target: T3, hu4-1BB-SNAP fusion on Hek293 EBNA cells; assay: TagLite FRET competition on hu4-1BB-SNAP cells; competitor 0.6 nM d2-labelled 20H4.9 IgG; 4 h; remark: listed apart in the source

B1: 4-1BB (20H4.9)/FAP (4B9) P329GLALA IgG1 2+1 (hole-VH) (bispecific antibody)
heavy 1: QVQLQQWGAGLLKPSETLSLTCAVYGGSFSGYYWSWIRQSPEKGLEWIGEINHGGYVTYNPSLESRVTISVDTSKNQFSLKLSSVTAADTAVYYCARDYGPGNYDWYFDLWGRGTLVTVSSASTKGPSVFPLAPSSKSTSGGTAALGCLVKDYFPEPVTVSWNSGALTSGVHTFPAVLQSSGLYSLSSVVTVPSSSLGTQTYICNVNHKPSNTKVDKKVEPKSCDKTHTCPPCPAPEAAGGPSVFLFPPKPKDTLMISRTPEVTCVVVDVSHEDPEVKFNWYVDGVEVHNAKTKPREEQYNSTYRVVSVLTVLHQDWLNGKEYKCKVSNKALGAPIEKTISKAKGQPREPQVCTLPPSRDELTKNQVSLSCAVKGFYPSDIAVEWESNGQPENNYKTTPPVLDSDGSFFLVSKLTVDKSRWQQGNVFSCSVMHEALHNHYTQKSLSLSPGGGGGSGGGGSGGGGSGGGGSEVQLLESGGGLVQPGGSLRLSCAASGFTFSSYAMSWVRQAPGKGLEWVSAIIGSGASTYYADSVKGRFTISRDNSKNTLYLQMNSLRAEDTAVYYCAKGWFGGFNYWGQGTLVTVSS
heavy 2: not shown
light: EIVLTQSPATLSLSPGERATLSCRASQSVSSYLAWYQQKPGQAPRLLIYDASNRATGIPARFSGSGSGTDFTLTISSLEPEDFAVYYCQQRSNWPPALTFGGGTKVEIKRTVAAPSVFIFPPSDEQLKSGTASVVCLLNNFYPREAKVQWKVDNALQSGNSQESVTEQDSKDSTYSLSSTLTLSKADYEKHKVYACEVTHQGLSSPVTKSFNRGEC
notes: also called 4-1BB (20H4.9)×FAP (4B9) 2+1; 20H4.9/4B9 2+1
[1]
  EC50 of activation of the NFκB signaling pathway (luciferase, HeLa-hu4-1BB-NFκB-luc), no FAP+ cells: 0.73 nM
  EC50 of activation of the NFκB signaling pathway (luciferase, HeLa-hu4-1BB-NFκB-luc), with 3T3-huFAP cells: 0.07 nM
  EC50 of activation of the NFκB signaling pathway (luciferase, HeLa-hu4-1BB-NFκB-luc), with WM-266-4 cells: 0.08 nM
[2]
  EC50 of human PBMC activation curves, % CD25+ CD4 (with NIH/3T3-huFAP cells and anti-CD3): 0.005 nM
  EC50 of human PBMC activation curves, % CD25+ CD8 (with NIH/3T3-huFAP cells and anti-CD3): 0.02 nM
  EC50 of human PBMC activation curves, % proliferating CD4 (with NIH/3T3-huFAP cells and anti-CD3): 0.004 nM
  EC50 of human PBMC activation curves, % proliferating CD8 (with NIH/3T3-huFAP cells and anti-CD3): 0.001 nM
[3]
  EC50: 0.7 nM
[4]
  EC50: 1.7 nM
[5]
  EC50: 0.1 nM
[6]
  EC50: 0.1 nM
[7]
  EC50: 1.6 nM
  EC50 interval: 1.2 to 2.3 nM

B2: 2+1 4-1BB (20H4.9)/CEA(A5B7P) human IgG1 PGLALA, (G4S)4, hole-VH (bispecific antibody)
heavy 1: QVQLQQWGAGLLKPSETLSLTCAVYGGSFSGYYWSWIRQSPEKGLEWIGEINHGGYVTYNPSLESRVTISVDTSKNQFSLKLSSVTAADTAVYYCARDYGPGNYDWYFDLWGRGTLVTVSSASTKGPSVFPLAPSSKSTSGGTAALGCLVKDYFPEPVTVSWNSGALTSGVHTFPAVLQSSGLYSLSSVVTVPSSSLGTQTYICNVNHKPSNTKVDKKVEPKSCDKTHTCPPCPAPEAAGGPSVFLFPPKPKDTLMISRTPEVTCVVVDVSHEDPEVKFNWYVDGVEVHNAKTKPREEQYNSTYRVVSVLTVLHQDWLNGKEYKCKVSNKALGAPIEKTISKAKGQPREPQVCTLPPSRDELTKNQVSLSCAVKGFYPSDIAVEWESNGQPENNYKTTPPVLDSDGSFFLVSKLTVDKSRWQQGNVFSCSVMHEALHNHYTQKSLSLSPGGGGGSGGGGSGGGGSGGGGSEVKLVESGGGLVQPGGSLRLSCATSGFTFTDYYMNWVRQPPGKALEWLGFIGNKANGYTTEYSASVKGRFTISRDKSQSILYLQMNTLRAEDSATYYCTRDRGLRFYFDYWGQGTTLTVSS
heavy 2: not shown
light: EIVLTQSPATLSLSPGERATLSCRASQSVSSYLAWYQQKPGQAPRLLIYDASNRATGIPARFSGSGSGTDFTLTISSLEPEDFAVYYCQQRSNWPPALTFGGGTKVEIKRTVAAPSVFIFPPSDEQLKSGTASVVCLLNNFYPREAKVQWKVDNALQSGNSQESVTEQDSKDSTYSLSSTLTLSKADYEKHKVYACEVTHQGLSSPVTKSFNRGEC
notes: also called 4-1BB (20H4.9)×CEA (A5B7P) 2+1; C-terminal VH/VL fusion of the A5B7P clone
[8]
  EC50 of Jurkat-hu4-1BB-NFκB-luc2 reporter cell line activation curves in the presence of CEA-expressing MKN45 tumor cells: 0.16 nM
[9]
  EC50: 0.06 nM

B3: 2+1 4-1BB (20H4.9)/CEA(A5B7P) human IgG1 PGLALA, CEA with CHCL crossfab (bispecific antibody)
heavy 1: not shown
heavy 2: QVQLQQWGAGLLKPSETLSLTCAVYGGSFSGYYWSWIRQSPEKGLEWIGEINHGGYVTYNPSLESRVTISVDTSKNQFSLKLSSVTAADTAVYYCARDYGPGNYDWYFDLWGRGTLVTVSSASTKGPSVFPLAPSSKSTSGGTAALGCLVEDYFPEPVTVSWNSGALTSGVHTFPAVLQSSGLYSLSSVVTVPSSSLGTQTYICNVNHKPSNTKVDEKVEPKSCDKTHTCPPCPAPEAAGGPSVFLFPPKPKDTLMISRTPEVTCVVVDVSHEDPEVKFNWYVDGVEVHNAKTKPREEQYNSTYRVVSVLTVLHQDWLNGKEYKCKVSNKALGAPIEKTISKAKGQPREPQVCTLPPSRDELTKNQVSLSCAVKGFYPSDIAVEWESNGQPENNYKTTPPVLDSDGSFFLVSKLTVDKSRWQQGNVFSCSVMHEALHNHYTQKSLSLSPGK
light 1: not shown
light 2: QTVLSQSPAILSASPGEKVTMTCRASSSVTYIHWYQQKPGSSPKSWIYATSNLASGVPARFSGSGSGTSYSLTISRVEAEDAATYYCQHWSSKPPTFGGGTKLEIKSSASTKGPSVFPLAPSSKSTSGGTAALGCLVKDYFPEPVTVSWNSGALTSGVHTFPAVLQSSGLYSLSSVVTVPSSSLGTQTYICNVNHKPSNTKVDKKVEPKSC
notes: also called 4-1BB (20H4.9)×CEA (A5B7P) 2+1 CHCL crossfab; knob-CHCL crossfab
[8]
  EC50 of Jurkat-hu4-1BB-NFκB-luc2 reporter cell line activation curves in the presence of CEA-expressing MKN45 tumor cells: 0.09 nM
[9]
  EC50: 0.06 nM

B4: 4-1BB (20H4.9)/FAP (4B9) P329GLALA IgG1 4+1 (hole-VH) (bispecific antibody)
heavy 1: QVQLQQWGAGLLKPSETLSLTCAVYGGSFSGYYWSWIRQSPEKGLEWIGEINHGGYVTYNPSLESRVTISVDTSKNQFSLKLSSVTAADTAVYYCARDYGPGNYDWYFDLWGRGTLVTVSSASTKGPSVFPLAPSSKSTSGGTAALGCLVKDYFPEPVTVSWNSGALTSGVHTFPAVLQSSGLYSLSSVVTVPSSSLGTQTYICNVNHKPSNTKVDKKVEPKSCDGGGGSGGGGSQVQLQQWGAGLLKPSETLSLTCAVYGGSFSGYYWSWIRQSPEKGLEWIGEINHGGYVTYNPSLESRVTISVDTSKNQFSLKLSSVTAADTAVYYCARDYGPGNYDWYFDLWGRGTLVTVSSASTKGPSVFPLAPSSKSTSGGTAALGCLVKDYFPEPVTVSWNSGALTSGVHTFPAVLQSSGLYSLSSVVTVPSSSLGTQTYICNVNHKPSNTKVDKKVEPKSCDKTHTCPPCPAPEAAGGPSVFLFPPKPKDTLMISRTPEVTCVVVDVSHEDPEVKFNWYVDGVEVHNAKTKPREEQYNSTYRVVSVLTVLHQDWLNGKEYKCKVSNKALGAPIEKTISKAKGQPREPQVCTLPPSRDELTKNQVSLSCAVKGFYPSDIAVEWESNGQPENNYKTTPPVLDSDGSFFLVSKLTVDKSRWQQGNVFSCSVMHEALHNHYTQKSLSLSPGGGGGSGGGGSGGGGSGGGGSEVQLLESGGGLVQPGGSLRLSCAASGFTFSSYAMSWVRQAPGKGLEWVSAIIGSGASTYYADSVKGRFTISRDNSKNTLYLQMNSLRAEDTAVYYCAKGWFGGFNYWGQGTLVTVSS
heavy 2: not shown
light: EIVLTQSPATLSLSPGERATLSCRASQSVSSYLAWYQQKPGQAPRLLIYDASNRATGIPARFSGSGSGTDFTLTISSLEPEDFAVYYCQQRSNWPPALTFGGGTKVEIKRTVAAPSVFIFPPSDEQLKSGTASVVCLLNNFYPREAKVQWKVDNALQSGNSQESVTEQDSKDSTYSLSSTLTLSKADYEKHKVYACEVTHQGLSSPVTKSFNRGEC
notes: also called 4-1BB (20H4.9)×FAP (4B9) 4+1; 20H4.9/4B9 4+1
[1]
  EC50 of activation of the NFκB signaling pathway (luciferase, HeLa-hu4-1BB-NFκB-luc), no FAP+ cells: 0.13 nM
  EC50 of activation of the NFκB signaling pathway (luciferase, HeLa-hu4-1BB-NFκB-luc), with 3T3-huFAP cells: 0.04 nM
  EC50 of activation of the NFκB signaling pathway (luciferase, HeLa-hu4-1BB-NFκB-luc), with WM-266-4 cells: 0.05 nM
[2]
  EC50 of human PBMC activation curves, % CD25+ CD4 (with NIH/3T3-huFAP cells and anti-CD3): 0.006 nM
  EC50 of human PBMC activation curves, % CD25+ CD8 (with NIH/3T3-huFAP cells and anti-CD3): 0.009 nM
  EC50 of human PBMC activation curves, % proliferating CD4 (with NIH/3T3-huFAP cells and anti-CD3): 0.003 nM
  EC50 of human PBMC activation curves, % proliferating CD8 (with NIH/3T3-huFAP cells and anti-CD3): 0.002 nM
[3]
  EC50: 1.6 nM
[4]
  EC50: 2 nM
[5]
  EC50: 0.1 nM
[6]
  EC50: 0.1 nM
[10]
  EC50: 0.5 nM
  EC50 interval: 0.3 to 0.7 nM

B5: 2+1 4-1BB (20H4.9)/CEA(T84.66-LCHA) human IgG1 PGLALA, (G4S)4 hole-VH (bispecific antibody)
heavy 1: QVQLQQWGAGLLKPSETLSLTCAVYGGSFSGYYWSWIRQSPEKGLEWIGEINHGGYVTYNPSLESRVTISVDTSKNQFSLKLSSVTAADTAVYYCARDYGPGNYDWYFDLWGRGTLVTVSSASTKGPSVFPLAPSSKSTSGGTAALGCLVKDYFPEPVTVSWNSGALTSGVHTFPAVLQSSGLYSLSSVVTVPSSSLGTQTYICNVNHKPSNTKVDKKVEPKSCDKTHTCPPCPAPEAAGGPSVFLFPPKPKDTLMISRTPEVTCVVVDVSHEDPEVKFNWYVDGVEVHNAKTKPREEQYNSTYRVVSVLTVLHQDWLNGKEYKCKVSNKALGAPIEKTISKAKGQPREPQVCTLPPSRDELTKNQVSLSCAVKGFYPSDIAVEWESNGQPENNYKTTPPVLDSDGSFFLVSKLTVDKSRWQQGNVFSCSVMHEALHNHYTQKSLSLSPGGGGGSGGGGSGGGGSGGGGSQVQLVQSGAEVKKPGSSVKVSCKASGFNIKDTYMHWVRQAPGQGLEWMGRIDPANGNSKYVPKFQGRVTITADTSTSTAYMELSSLRSEDTAVYYCAPFGYYVSDYAMAYWGQGTLVTVSS
heavy 2: not shown
light: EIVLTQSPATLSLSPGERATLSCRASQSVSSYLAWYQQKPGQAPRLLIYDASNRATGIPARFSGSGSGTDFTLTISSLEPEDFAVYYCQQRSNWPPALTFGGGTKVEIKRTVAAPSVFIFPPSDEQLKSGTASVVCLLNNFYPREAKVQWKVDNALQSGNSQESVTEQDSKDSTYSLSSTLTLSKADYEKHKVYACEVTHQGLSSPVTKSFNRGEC
notes: also called 4-1BB (20H4.9)×CEA (T84.66-LCHA) 2+1
[8]
  EC50 of Jurkat-hu4-1BB-NFκB-luc2 reporter cell line activation curves in the presence of CEA-expressing MKN45 tumor cells: 0.19 nM
[9]
  EC50: 0.07 nM

Reference: patent US20230045262A1 (Hoffmann-La Roche, published 2023)
